# The supplement of paper PMC7877785
# ± gives the uncertainty stated by the source.
# Assay: self-splicing fitness, log relative to wild type (ln ratio); higher = more splicing; Tetrahymena group I intron in knt gene, E. coli kanamycin selection, DiMSum; sequences stand for … in CUCUCU…GGAGGGAAAAGUUAUCAGGCAUGCACCUGGUAGCUAGUCUUUAAACCAAUAGAUUGCAUCGGUUUAAAAGGCAAGACCGUCAAAUUGCGGGAAAGGGGUCAACAGCCGUUCAGUACCAAGUCUCAGGGGAAACUUUGAGAUGGCCUUGCAAAGGGUAUGGUAAUAAGCUGACGGACAUGGUCCUAACCACGCAGCCAAGUCCUAAGUCAACAGAUCUUCUGUUGAUAUGGAUGCAGUUCACAGACUAAAUGUCGGUCGGGGAAGAUGUAUUCUUCUCAUAAGAUAUAGUCGGACCUCUCCUUAAUGGGAGCUAGCGGAUGAAGUGAUGCAACACUGGAGCCGCUGGGAACUAAUUUGUAUGCGAAAGUAUAUUGAUUAGUUUUGGAGUACUCGUGGUCG
# Summary of the method: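 Pooled colonies went to amplicon sequencing on an Illumina HiSeq 2500 after six replicate transformations. The plates were LB agar with 100 μg/mL carbenicillin, 50 μM IPTG and 0.2% rhamnose, with or without 25 μg/mL kanamycin, incubated overnight at 37°C or 30°C. The E. coli BL21(DE3) library had all eight P1ex-region intron nucleotides randomised, the intron placed in the knt kanamycin-resistance gene on pET-22b(+). DiMSum fitness is the error-weighted combination of replicate fold changes, kanamycin against none, normalised to wild type.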
Sequence,self-splicing fitness (ln) (30 °C),self-splicing fitness (ln) (37 °C)
CCAAAGCAAUAUUACGUCAC,-4.61 ± 0.25,-2.14 ± 0.19
CCAAAGCAAUAUUACGUGAC,-4.61 ± 0.32,-2.12 ± 0.26
CCAAAGCAAUAUUACGUGUG,-1.33 ± 0.055,-0.624 ± 0.066
CCAAAGCAAUAUUACGUUAC,-3.75 ± 0.22,-3.75 ± 0.36
CCACAGCAAUAUUACGAAGU,-3.69 ± 0.18,-3.17 ± 0.21
CCACAGCAAUAUUACGAAUG,-1.11 ± 0.061,-0.833 ± 0.071
CCACAGCAAUAUUACGAUAC,-3.48 ± 0.24,-2.16 ± 0.22
CCACAGCAAUAUUACGAUGU,-4.02 ± 0.24,-1.89 ± 0.15
CCACAGCAAUAUUACGAUUG,-1.3 ± 0.05,-0.453 ± 0.067
CCACAGCAAUAUUACGCAUA,-3.46 ± 0.18,-2.42 ± 0.19
CCACAGCAAUAUUACGCCAU,-3.59 ± 0.2,-1.36 ± 0.21
CCACAGCAAUAUUACGCCUG,-1.51 ± 0.092,-0.296 ± 0.1
CCACAGCAAUAUUACGCGCC,-3.03 ± 0.29,–
CCACAGCAAUAUUACGGAGU,-3.32 ± 0.16,-1.32 ± 0.14
CCACAGCAAUAUUACGGCCG,-0.955 ± 0.073,0.0456 ± 0.1
CCACAGCAAUAUUACGGCCU,-3.94 ± 0.24,-3.38 ± 0.31
CCACAGCAAUAUUACGGGAG,-2.29 ± 0.14,-2.97 ± 0.19
CCACAGCAAUAUUACGGUAA,-3 ± 0.14,-2.2 ± 0.18
CCACAGCAAUAUUACGUACU,-2.01 ± 0.12,-1.93 ± 0.19
CCACAGCAAUAUUACGUAGG,-2.62 ± 0.093,-2.18 ± 0.14
CCACAGCAAUAUUACGUAUU,-3.57 ± 0.15,-2.01 ± 0.14
CCACAGCAAUAUUACGUUAG,-1.56 ± 0.062,-0.188 ± 0.071
CCACAGCAAUAUUACGUUUU,-3.73 ± 0.16,-3.7 ± 0.22
CCAGAGCAAUAUUACGAGCU,-3.54 ± 0.34,-2.35 ± 0.45
CCAGAGCAAUAUUACGAGUU,-1.94 ± 0.14,-2.9 ± 0.27

Sequence,self-splicing fitness (ln) (30 °C),self-splicing fitness (ln) (37 °C)
CCAGAGCAAUAUUACGAUCG,-0.986 ± 0.11,-0.589 ± 0.14
CCAGAGCAAUAUUACGAUUG,-1.42 ± 0.11,-0.92 ± 0.14
CCAGAGCAAUAUUACGCGUU,-4.06 ± 0.23,-2.65 ± 0.18
CCAGAGCAAUAUUACGGAUC,-1.77 ± 0.32,–
CCAGAGCAAUAUUACGGCCG,-1.72 ± 0.16,-0.276 ± 0.31
CCAGAGCAAUAUUACGGCCU,-2.77 ± 0.13,-1.27 ± 0.17
CCAGAGCAAUAUUACGGCGC,-3.67 ± 0.25,-2 ± 0.26
CCAGAGCAAUAUUACGGCGG,-3.72 ± 0.18,-1.92 ± 0.24
CCAGAGCAAUAUUACGGGAG,-3.51 ± 0.23,-3.55 ± 0.3
CCAGAGCAAUAUUACGGUUA,-2.7 ± 0.18,-2.01 ± 0.25
CCAGAGCAAUAUUACGGUUU,-4.44 ± 0.39,-3.07 ± 0.32
CCAGAGCAAUAUUACGUACC,–,-2 ± 0.35
CCAGAGCAAUAUUACGUAUC,-2.62 ± 0.17,-1.73 ± 0.25
CCAGAGCAAUAUUACGUAUU,-3.91 ± 0.18,-2.41 ± 0.17
CCAGAGCAAUAUUACGUCAU,-3.64 ± 0.28,-2.81 ± 0.18
CCAGAGCAAUAUUACGUGCU,-3.37 ± 0.24,-3.56 ± 0.42
CCAGAGCAAUAUUACGUGGU,-2.75 ± 0.12,-2.96 ± 0.21
CCAGAGCAAUAUUACGUUCA,-2.45 ± 0.32,-2.32 ± 0.34
CCAUAGCAAUAUUACGAAAC,-4.09 ± 0.35,-2 ± 0.29
CCAUAGCAAUAUUACGACCG,-0.0743 ± 0.15,-0.0737 ± 0.22
CCAUAGCAAUAUUACGACUA,–,-1.71 ± 0.37
CCAUAGCAAUAUUACGAGGU,-3.37 ± 0.26,-2.67 ± 0.23
CCAUAGCAAUAUUACGAUAG,-0.989 ± 0.06,-0.387 ± 0.076
CCAUAGCAAUAUUACGCCGU,-4.03 ± 0.34,-1.91 ± 0.35
